Laboratory results from PMC7337490.

T1: GFP-MKLP2 WT (human), O95235
T1 chain: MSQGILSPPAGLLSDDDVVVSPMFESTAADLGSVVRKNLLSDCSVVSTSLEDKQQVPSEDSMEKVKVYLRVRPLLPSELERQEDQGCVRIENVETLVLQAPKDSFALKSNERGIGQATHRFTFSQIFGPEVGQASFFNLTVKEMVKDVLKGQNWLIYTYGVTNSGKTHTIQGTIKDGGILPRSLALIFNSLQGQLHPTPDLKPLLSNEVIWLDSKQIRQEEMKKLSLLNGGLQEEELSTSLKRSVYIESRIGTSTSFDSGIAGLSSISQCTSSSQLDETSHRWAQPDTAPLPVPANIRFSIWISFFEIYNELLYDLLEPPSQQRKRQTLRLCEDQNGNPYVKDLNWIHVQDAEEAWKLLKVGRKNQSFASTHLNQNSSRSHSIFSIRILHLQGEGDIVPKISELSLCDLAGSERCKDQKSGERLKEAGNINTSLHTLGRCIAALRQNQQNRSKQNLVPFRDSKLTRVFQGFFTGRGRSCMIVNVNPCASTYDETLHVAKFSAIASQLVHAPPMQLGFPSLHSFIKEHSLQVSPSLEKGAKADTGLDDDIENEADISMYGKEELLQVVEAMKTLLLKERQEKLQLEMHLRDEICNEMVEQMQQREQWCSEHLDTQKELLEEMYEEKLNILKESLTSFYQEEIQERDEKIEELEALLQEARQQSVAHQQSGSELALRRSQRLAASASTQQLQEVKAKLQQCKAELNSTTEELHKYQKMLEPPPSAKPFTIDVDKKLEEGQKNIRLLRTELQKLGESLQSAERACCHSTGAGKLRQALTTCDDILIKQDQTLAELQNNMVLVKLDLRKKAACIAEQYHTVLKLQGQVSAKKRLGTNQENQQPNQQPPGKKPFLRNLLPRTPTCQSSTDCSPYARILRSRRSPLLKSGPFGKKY

T2: MKLP2 (endogenous) (human (endogenous in HeLa)), O95235
T2 chain: T1 chain

B1: GFP-MKLP2 WT, O95235 1-890 (natural protein)
chain: T1 chain
B2: MKLP2 (endogenous), O95235 1-890 (natural protein)
chain: T1 chain

Legend:
[1] = target: T1, GFP-MKLP2 WT (human), O95235; assay: SEC; 1 mg lysate of nocodazole-arrested HeLa cells on Superose 6 10/300 at 4°C; fractions Western blotted for MKLP2 and GFP; size from calibration standards; conditions: remark: other sources report otherwise
[2] = target: T2, MKLP2 (endogenous) (human (endogenous …)); assay: as above; conditions: remark: other sources report otherwise

Binder | stoichiometry N [1] | stoichiometry N [2]
B1 | 2 | –
B2 | – | 2
